Laboratory results taken from patent US20190211097A1.
Each block holds one substance with its values, some of them ahead of it.

Target: human CD32a (FcgammaRIIa) on washed human platelets (human) (UniProt P12318)
Test: cell-based or functional assay

Chain of human CD32a (FcgammaRIIa) on washed human platelets (human) (P12318 34-317 limits assumed): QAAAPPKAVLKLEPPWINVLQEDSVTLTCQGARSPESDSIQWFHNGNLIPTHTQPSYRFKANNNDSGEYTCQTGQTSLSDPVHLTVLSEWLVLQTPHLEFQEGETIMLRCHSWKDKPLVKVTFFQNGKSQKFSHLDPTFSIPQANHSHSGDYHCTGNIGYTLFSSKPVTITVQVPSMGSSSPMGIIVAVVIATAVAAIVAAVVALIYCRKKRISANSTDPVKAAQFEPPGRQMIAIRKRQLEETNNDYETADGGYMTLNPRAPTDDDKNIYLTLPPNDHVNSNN
Chain of M90 anti-CD40L mAb + M91 anti-CD40L mAb + CD40L immune complex (a polyclonal immune complex) (P29965 113-261, one chain of several): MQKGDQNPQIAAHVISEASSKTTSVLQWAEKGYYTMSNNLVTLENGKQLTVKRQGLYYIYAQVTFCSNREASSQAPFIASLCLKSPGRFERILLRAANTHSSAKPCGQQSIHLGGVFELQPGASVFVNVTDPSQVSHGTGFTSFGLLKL
Chain of M90 anti-CD40L mAb + CD40L immune complex (P29965 113-261, one chain of several): as above

washed human platelet aggregation induced by the IC (IC concentration): 1000 nM
Substance: M90 anti-CD40L mAb + M91 anti-CD40L mAb + CD40L immune complex (a polyclonal immune complex) (from UniProt P29965 113-261)

mAb concentration needed to block 500 nM M90+CD40L IC-induced platelet aggregation: < 5 nM
Substance: native chimeric IV.3 human IgG1 mAb (antibody)

Continued, substance first:

Substance: M90 anti-CD40L mAb + CD40L immune complex (from UniProt P29965 113-261)
washed human platelet aggregation induced by the IC (IC concentration): 250 nM

Substance: deglycosylated native mouse IV.3 IgG2b mAb (antibody)
mAb concentration that blocked 250 nM M90+CD40L IC-induced platelet aggregation: 7 nM

Substance: effector-deficient humanized IV.3.1 IgG1 E269R mAb (antibody)
mAb concentration that blocked 250 nM HIT-like IC-induced platelet aggregation: 40 nM
mAb concentration that blocked 500 nM M90+CD40L IC-induced platelet aggregation: 6 nM
mAb concentration that blocked 1000 nM M90+M91+CD40L IC-induced platelet aggregation: 25 nM
mAb concentration that blocked APS-like IC-induced platelet aggregation: 33 nM
mAb concentration that did not inhibit 500 nM M90+CD40L IC-induced platelet aggregation: 2 nM
mAb concentration that inhibited 500 nM M90+CD40L IC-induced platelet aggregation: 3 nM
platelet activation by the combination of hIV.3.1 (25 nM), hAT-10 (90 nM) and MDE-8 (75 nM), all IgG1 E269R: 25 nM
platelet aggregation by the combination of hAT-10 (2 nM), hIV.3.1 (150 nM) and MDE-8 (150 nM), all IgG1 E269R: 150 nM
